Laboratory results as given in PMC4475381, “Molecular basis for the recognition of cyclic-di-AMP by PstA, a PII-like signal transduction protein” (MicrobiologyOpen, 2015).

How the values were obtained:
[1] = target: T1, PstA (LmPstA) (Listeria monocytogenes, UniProt Q8Y3Y7, F36A); assay: DRaCALA binding titration with […]-c-di-AMP
T1 construct: gene lmo2692; pstA F36A in pET20b, C-terminal His-tag

[2] = target: T2, PstA (LmPstA) (Listeria monocytogenes, UniProt Q8Y3Y7, N41A); assay: DRaCALA binding titration with […]-c-di-AMP (saturation not achieved)
T2 construct: gene lmo2692; pstA N41A in pET20b, C-terminal His-tag

[3] = target: PstA (PII-like signal transduction protein A) from Listeria monocytogenes (Listeria monocytogenes); assay: crystal structure; apo LmPstA (10 mg/mL); sitting drop, 20°C, 20% PEG3350, 0.1 mol/L bis-Tris pH 5.5, 0.1 mol/L ammonium acetate; 2.9 Å; trimer in the asymmetric unit
[4] = target: PstA (PII-like signal transduction protein A) from Listeria monocytogenes (Listeria monocytogenes); assay: SEC; gel filtration column (S-300, GE Healthcare) of purified LmPstA
[5] = target: PstA (PII-like signal transduction protein A) from Listeria monocytogenes (Listeria monocytogenes); assay: crystal structure; LmPstA (20 mg/mL) cocrystallised with 2.5 mmol/L c-di-AMP; sitting drop, 20°C, 12% PEG3350, 0.1 mol/L sodium malonate pH 4.0; 1.6 Å; trimer in the asymmetric unit

stoichiometry N [3]	stoichiometry N [4]	stoichiometry N [5]	Molecule	Kd [1]	Kd [2]
–	–	–	Nc1ncnc2c1ncn2[C@@H]1O[C@@H]2COP(=O)(O)O[C@H]3[C@@H](O)[C@H](n4cnc5c(N)ncnc54)O[C@@H]3COP(=O)(O)O[C@H]2[C@H]1O [c-di-AMP]	7 µM	~140 µM
3	3	3	PstA (PII-like signal transduction protein A) from Listeria monocytogenes (natural protein)	–	–
